Data on two substances can be found in PMC4227728.

Experiment [1] concerns the target ErbB2 (as used in the ErbB2 ELISA of the Fab mutants) (human) (UniProt P04626). Description: ELISA. For orientation: An ELISA detects its analyte on a solid surface through an enzyme-linked reagent.
Experiment [2] concerns the target ErbB2 ECD labeled with an infrared dye (human) (UniProt P04626). Description: cross-linking.

Regarding Herceptin Fab-AcrK103, the fold reduction of binding against the WT Fab in experiment [1] stood at 20 fold.
In experiment [2], Herceptin Fab-VSF92 registered a percent of ErbB2 ECD cross-linked of 80%.
